# Test results taken from the DeepSol protein solubility set.
# Test: soluble on expression in E. coli; label from the status in PepcDB or PDB records
row,Sequence,soluble on expression in E. coli
1,MELPLDKIKLPPGFSISVWANVPDARTMTLGDKGTVFVGSKSAGNVYAITENAGKRQIRIIASKLKMPNGVAFHDGALYVSSVNRILRFDNIENTLDQPLPPRIITADYPKETYHGWRFIAFGPDGWLYVPVGSSCNVCETDLEHYALISRIRPDGSNYEVFAKGVRNTEGFDWHPVTKALWFTDISREWMGDNLPPDELNHASNQGLDFGFPYCHGKEVSDPKLGAKRDCNKFIPPAVELDPHVAPMGMRFYTGTMFPAEYHNGIFIAEHGSWNRSTKIGYRLEWVQLEVNEVARKEIFAEGWLQENEAWGRPVDVLVMPDGALLVSDDMAGVVYRISYDQPLEHHHHHH,soluble
2,MELPPKVKNILLLDSEGKRVAVKYYSDDWPTNSAQEAFEKSVFTKTQKTNARTEVEVTALENNIVVYKFVQDLHFFVTGGEEENELILASVLEGLFDAVTLLLRSNVDKREALDNLDLIFLSFDEIIDGGIVLETDANVIAGKAGINSTDPNAPLSEQTISQALATAREHLTRSLMK,soluble
3,MELTAFRHQVGGHFGILLCNGHVAKPSNLREMAFYKVMNSELKHFSPAFCKEVDVRATVNPSTGQIVVETLEKLDCHKKKSSSKHERSSTGFRQTTDGRVTVDTEKQWNPWAAGCQCKVVERMLKELEPTPFLLLENVVAHYTRPCVLDLKIGTRQHGDDASESKRHRQLMKCRHSTSATLGVRVVGMQLYEAETKSYSYVEKQEGRRIDAAGFRGYVKRFIKCCGRSRAARIRQKLSKLRSLLAEFEGYRFFSASILIAFDAEAADSSSDDAVKVCIIDFAHSTFSGFFEDLAYSGADEGCLLGLDSIVEAMEPIVSKDPVTPSSSFEKKK,not soluble
4,MELWRQCTHWLIQCRVLPPSHRVTWEGAQVCELAQALRDGVLLCQLLNNLLPQAINLREVNLRPQMSQFLCLKNIRTFLSTCCEKFGLKRSELFEAFDLFDVQDFGKVIYTLSALSWTPIAQNKGIMPFPTEDSALNDEDIYSGLSDQIDDTAEEDEDLYDCVENEEAEGDEIYEDLMRLESVPTPPKMTEYDKRCCCLREIQQTEEKYTDTLGSIQQHFMKPLQRFLKPQDMETIFVNIEELFSVHTHFLKELKDALAGPGATTLYQVFIKYKERFLVYGRYCSQVESASKHLDQVATAREDVQMKLEECSQRANNGRFTLRDLLMVPMQRVLKYHLLLQELVKHTQDATEKENLRLALDAMRDLAQCVNEVKRDNETLRQITNFQLSIENLDQSLANYGRPKIDGELKITSVERRSKTDRYAFLLDKALLICKRRGDSYDLKASVNLHSFQVRDDSSGERDNKKWSHMFLLIEDQGAQGYELFFKTRELKKKWMEQFEMAISNIYPENATANGHDFQMFSFEETTSCKACQMLLRGTFYQGYRCYRCRAPAHKECLGRVPPCGRHGQDFAGTMKKDKLHRRAQDKKRNELGLPKMEVFQEYYGIPPPPGAFGPFLRLNPGDIVELTKAEAEHNWWEGRNTATNEVGWFPCNRVHPYVHGPPQDLSVHLWYAGPMERAGAEGILTNRSDGTYLVRQRVKDTAEFAISIKYNVEVKHIKIMTSEGLYRITEKKAFRGLLELVEFYQQNSLKDCFKSLDTTLQFPYKEPERRAISKPPAGSTKYFGTAKARYDFCARDRSELSLKEGDIIKILNKKGQQGWWRGEIYGRIGWFPSNYVEEDYSEYC,soluble
5,MELYLIRHGIAEAQKTGIKDEERELTQEGKQKTEKVAYRLVKLGRQFDLIVTSPLIRARQTAEILLASGLSCQLEESNHLAPNGNIFNWLDYWLKPKNFPENAQIAIVGHEPCLSNWTEILLWGEAKDSLVLKKAGMIGLKLPEIGSPVGRSQMFWLTPPRYLLLEHHHHHH,soluble
6,MEMEKEFEQIDKSGSWAAIYQDIRHEASDFPCRVAKLPKNKNRNRYRDVSPFDHSRIKLHQEDNDYINASLIKMEEAQRSYILTQGPLPNTCGHFWEMVWEQKSRGVVMLNRVMEKGSLKCAQYWPQKEEKEMIFEDTNLKLTLISEDIKSYYTVRQLELENLTTQETREILHFHYTTWPDFGVPESPASFLNFLFKVRESGSLSPEHGPVVVHCSAGIGRSGTFCLADTCLLLMDKRKDPSSVDIKKVLLDMRKFRMGLIATAEQLRFSYLAVIEGAKFIMGDSSVQDQWKELSHEDLEPPPEHIPPPPRPPKRILEPHNGKCREFFPN,soluble
7,MEMNRRRSRGFMIAKLMPFCKAVKSPTPSQDLYNNVHYTSSTTTSYARQPDFNNYVTATTPLPPKVSFLLQPSLAPEGKDMEKKLNMMAEKLIGRGINGVDDCVDARAASYISSVRERFKADQYCEKLTTVISLDDEN,soluble
8,MEMRELVGQFVERMQVLRHLVPILPDEQLYVRFESDDETALLLIGKESAARGMENDERKTLTVRGSKEALASLLNGELKLQQLVRLREVHVSGSFRQLLLLESLLHLAKPYRHVG,not soluble
9,MENKYTHGVLFYHEHSGLKNINQGIGEVTTALSSICKHLSIQLSENEGDIIKYCQEIKTKNYAKDVDILFILGGDGTVNELINGVMTHDLQLPIGILPGGTFNDFTKTLNIAPNHKQASEQMISAQVGKYDVIKINNQYALNFVGLGLIVQNAENVQDGSKDIFGKLSYIGSTVKTLLNPTQFNYQLSIDDKTYSGETTMILTANGPFIGGSRIPLTDLSPQDGELNTFIFNEQSFSILNDIFKKRDSMNWNEITQGIEHIPGKKISLTTDPAMKVDIDGEISLETPIDIEVIPNAIQLLTVNDLLEHHHHHH,not soluble
10,MENLYFQGLEHHHHHHENSSPYTSEHFHYTVTDIKDLTKLGAIYDKTKKYWVYQGKPVMPDQFTFELLDFLHQLTHLSFSKMKALLERSHSPYYMLNRDRTLKNITETCKACAQVNASKS,soluble
11,MENPPAEPFFLDASPGKRFCLYHSPAGDTPLNQVFIYLHPFAEEMNKSRRMAALQAKAFAAMGFGVLQIDLYGCGDSAGDFGEATWEIWKNDVEFAYQWLIQQGFTSVHFWGLRLGALLALDYAGKAETGSAKFILWQPVINGKSFLTQFLRLRLVNKLLSDDSDKAQNVHLREELRAGKSLEIAGYTLSPAMAAAIDELKLGQLVVGNSEIYWFEITPEAGRGLPPAGAAVVEAWNQSGVYPEVTLIPGLPFWATQEISECPALLAATAKLFAGIQP,not soluble
12,MENQDYTVRLTVQASPQEVFKQINRVTAWWTKNLQGDSEKLNDVFTVNFPGMHVSTQKLIECIPDKKVTWMVTDSHLTFIQRKTEWTDTTIQFDISRNVKHTEVLFTHKGLNPAIECYGDCAKGWDYFIKGSLFKLLTEGTGTPELEHHHHHH,soluble
13,MENVTNFPLLQLPSKTIQVVLSIMSPFELINFSKSSAEAKKVVKQFANAKRRELYKFKVCIGLIPFVAFV,not soluble
14,MEPHSLRYNLMVLSQDESVQSGFLAEGHLDGQPFLRYDRQKRRAKPQGQWAEDVLGAETWDTETEDLTENGQDLRRTLTHIKDQKGGLHSLQEIRVCEIHEDSSTRGSRHFYYNGELFLSQNLETQESTVPQSSRAQTLAMNVTNFWKEDAMKTKTHYRAMQADCLQKLQRYLKSGVAIRRTVPPMVNVTCSEVSEGNITVTCRASSFYPRNITLTWRQDGVSLSHNTQQWGDVLPDGNGTYQTWVATRIRQGEEQRFTCYMEHSGNHGTHPVPSGKVLVLQSQRTDFPYVSAAMPCFVIIIILCVPCCKKKTSAAEGP,soluble
15,MEPSSLELPADTVQRIAAELKCHPTDERVALHLDEEDKLRHFRECFYIPKIQDLPPVDLSLVNKDENAIYFLGNSLGLQPKMVKTYLEEELDKWAKIAAYGHEVGKRPWITGDESIVGLMKDIVGANEKEIALMNALTVNLHLLMLSFFKPTPKRYKILLEAKAFPSDHYAIESQLQLHGLNIEESMRMIKPREGEETLRIEDILEVIEKEGDSIAVILFSGVHFYTGQHFNIPAITKAGQAKGCYVGFDLAHAVGNVELYLHDWGVDFACWCSYKYLNAGAGGIAGAFIHEKHAHTIKPALVGWFGHELSTRFKMDNKLQLIPGVCGFRISNPPILLVCSLHASLEIFKQATMKALRKKSVLLTGYLEYLIKHNYGKDKAATKKPVVNIITPSHVEERGCQLTITFSVPNKDVFQELEKRGVVCDKRNPNGIRVAPVPLYNSFHDVYKFTNLLTSILDSAETKN,soluble
16,MEPTEKSMLLETTSTTKMETKYEDMLPVMAEKMDVEEFVSELCKGFSLLADPERHLITAESLRRNSGILGIEGMSKEDAQGMVREGDLDGDGALNQTEFCVLMVRLSPEMMEDAETWLEKALTQELCNHNLSSMP,soluble
17,MEQLQVGQVTLTWLNGGVTHLDGGAMFGVVPKPLWSKKYPPNDQNQIELRTDPILVEAGGKRLLIESGIGNGKLTDKQKRNFGVTEESSLDESLAALGLTRGDIDIVIMTHLHFDHACGLTVWEDGRLVPAFPRAAIITSDVEWEEMRAPNIRSRNTYWKENWEPIAEQVIPFTKETEVVSGIRLIHTGGHSAGHAIVLIESDGEMAIHLGDLLGTHAHQNVLWVMAYDDYPMDSIFAKQRWLPYGIERNAWFTFYHDAYYRAVKWREDGTIAEQVKRNRPTLLEHHHHHH,soluble
18,MEQPKYKRVVLKLSGEALAGKQGFGIQPAVIQSIAKQVKEVVELGVEVAIVVGGGNIWRGKTGSEMGMDRATADYMGMLATVMNALALQDSLEQLGVETRVQTSIEMRQVAEPYIRRRAIRHLEKKRVVIFAAGTGNPYFSTDTTAALRAAEIEADVILMAKNNVDGVYSADPNVDANALKYDELSYLDVIKQGLGVMDSTASSLCMDNNIPLIVFSIMEEGNIKRAVLGENIGTIVRGK,not soluble
19,MEQRRVTDFFARRRPGPPRIAPPKLACRTPSPARPALRAPASATSGSRKRARPPAAPGRDQARPPARRRLRLSVDEVSSPSTPEAPDIPACPSPGQKIKKSTPAAGQPPHLTSAQDQDTISELASCLQRARELGARVRALKASAQDAGESCTPEAEGRPEEPCGEKAPAYQRFHALAQPGLPGLVLPYKYQVLAEMFRSMDTIVGMLHNRSETPTFAKVQRGVQDMMRRRFEERNVGQIKTVYPASYRFRQERSVPTFKDGTRRSDYQLTIEPLLEQEADGAAPQLTASRLLQRRQIFSQKLVEHVKEHHKAFLASLSPAMVVPEDQLTRWHPRFNVDEVPDIEPAALPQPPATEKLTTAQEVLARARNLISPRMEKALSQLALRSAAPSSPGSPRPALPATPPATPPAASPSALKGVSQDLLERIRAKEAQKQLAQMTRCPEQEQRLQRLERLPELARVLRSVFVSERKPALSMEVACARMVGSCCTIMSPGEMEKHLLLLSELLPDWLSLHRIRTDTYVKLDKAADLAHITARLAHQTRAEEGL,soluble
20,MERDRISALKRSFEVEEVETPNSTPPRRVQTPLLRATVASSTQKFQDLGVKNSEPSARHVDSLSQRSPKASLRRVELSGPKAAEPVSRRTELSIDISSKQVENAGAIGPSRFGLKRAEVLGHKTPEPAPRRTEITIVKPQESAHRRMEPPASKVPEVPTAPATDAAPKRVEIQMPKPAEAPTAPSPAQTLENSEPAPVSQLQSRLEPKPQPPVAEATPRSQEATEAAPSCVGDMADTPRDAGLKQAPASRNEKAPVDFGYVGIDSILEQMRRKAMKQGFEFNIMVVGQSGLGKSTLINTLFKSKISRKSVQPTSEERIPKTIEIKSITHDIEEKGVRMKLTVIDTPGFGDHINNENCWQPIMKFINDQYEKYLQEEVNINRKKRIPDTRVHCCLYFIPATGHSLRPLDIEFMKRLSKVVNIVPVIAKADTLTLEERVHFKQRITADLLSNGIDVYPQKEFDEDSEDRLVNEKFREMIPFAVVGSDHEYQVNGKRILGRKTKWGTIEVENTTHCEFAYLRDLLIRTHMQNIKDITSSIHFEAYRVKRLNEGSSAMANGVEEKEPEAPEM,not soluble
21,MERLQKVIARAGIASRRKAEELILQGRVKVNGRVVKELGVKVGPRDDVEVDGIPIEREEPVYYLLYKPRGVISSVKDDRGRKVVTDFFKDLDKRIYPIGRLDYDTSGLLLLTNDGDFANLLMHPRYEIEKVYIAKVKGIPTHEQLKRLEQGVQLEDGMTAPAKVKLLSADRKKGTAIVEIRIHEGRNRQVRRMFEAIGCEVLKLKRERYAFLDLKGLRPGEYRELTPHEVKLLRVLAQSGGRK,soluble
